According to patent US20210139554A1 (published 2021):

B1: 2C3 (antibody, V domains shown)
VH: EVQLVQSGAEVKKPGESLKISCKGSGYRFTSYWIGWVRQMPGKGLEWMGIIYPGDSDTRYSPSFQGQVTISADKSISAAYLQWSSLKASDTAMYYCARQQVAGMLDYWGQGTLVTVSS
VL: EIVLTQSPGTLSLSPGERATLSCRASQSFSSSYLVWYQQKPGQAPRLLIYGASSRATGIPDRFGGSGSGTDFTLTISRLEPEDFAVYYCQQYGSSPLTFGGGTKVEIK
B2: 26H7 (antibody, V domains shown)
VH: EVQLVQSGAEVKKPGESLKISCKGSGYRFTNYWIGWVRQMPGKGLEWMGIIYPGDSDTKYSPSFQGQVTISADKSISTAYLQWSSLKASDTAMYYCARHGGYSGRSYYYGMDVWGQGTAVTVSS
VL: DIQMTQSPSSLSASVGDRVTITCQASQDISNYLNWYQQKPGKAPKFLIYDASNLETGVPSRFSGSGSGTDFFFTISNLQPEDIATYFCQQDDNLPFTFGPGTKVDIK

What was measured:
cynomolgus monkey IL-2 = biological target: T1, cynomolgus monkey IL-2 (cynomolgus monkey, UniProt Q29615 21-154, limits assumed); experiment: BIACORE
T1 construct: also called cyno IL-2
T1 sequence (Q29615 21-154 limits assumed): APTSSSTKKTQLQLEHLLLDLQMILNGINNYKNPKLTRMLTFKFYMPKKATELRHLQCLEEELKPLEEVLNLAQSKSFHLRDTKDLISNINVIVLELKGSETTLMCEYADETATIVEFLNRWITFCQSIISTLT

wild-type human IL-2 = biological target: T2, wild-type human IL-2 (human, UniProt P60568 21-153); experiment: BIACORE
T2 construct: The construct used in ELISA and BIACORE is not described; also called hIL-2; WT IL-2
T2 sequence (P60568 21-153 limits assumed): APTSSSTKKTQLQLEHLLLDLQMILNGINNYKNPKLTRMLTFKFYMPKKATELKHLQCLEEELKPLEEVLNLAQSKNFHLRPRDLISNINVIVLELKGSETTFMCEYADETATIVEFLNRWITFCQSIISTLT

| Binder | Kd (cynomolgus monkey IL-2) [nM] | Kd (wild-type human IL-2) [nM] |
| --- | --- | --- |
| B1 | ~1.2 | – |
| B2 | – | ~1.3 |
